Paper PMC9271913

Molecular target: Human Flag-tagged RER1 TP37_38AA mutant (human)
Assay: co-IP; SH-SY5Y and U251 cells co-transfected with Flag-tagged RER1 (wild type or mutant) and NEDD4-2-HA, with or without Tg (0.5 uM); gentle RIPA lysis buffer; anti-Flag or anti-HA on Protein A/G magnetic beads, 4°C overnight; immunoblot

Human Flag-tagged RER1 TP37_38AA mutant (human), sequence (P78508 whole entry, change not shown): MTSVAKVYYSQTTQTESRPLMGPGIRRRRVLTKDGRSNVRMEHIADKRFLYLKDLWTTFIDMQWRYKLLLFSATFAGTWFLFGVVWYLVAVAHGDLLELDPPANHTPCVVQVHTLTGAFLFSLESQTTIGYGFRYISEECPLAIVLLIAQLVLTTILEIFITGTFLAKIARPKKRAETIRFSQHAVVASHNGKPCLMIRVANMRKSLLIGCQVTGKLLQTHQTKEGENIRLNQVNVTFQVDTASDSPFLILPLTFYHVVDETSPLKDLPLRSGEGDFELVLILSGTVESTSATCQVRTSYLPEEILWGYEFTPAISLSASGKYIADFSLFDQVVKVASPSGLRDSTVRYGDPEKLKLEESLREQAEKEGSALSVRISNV

With “Human HA-tagged NEDD4-2 (from UniProt Q96PU5-5 1-955) (natural protein)” the interaction in percent of wild-type RER1 (co-IP densitometry) was 30 to 40%.
